One data set concerns claudin-1 transcripts. Kind of data set: qPCR of claudin-1 transcripts after siRNA transfection of PHK. The settings on record: siRNA 100 nM. It is filed as cell-based, human. On the procedure: (§1) QPCR was performed using the iScript™ cDNA Synthesis kit and iQ™ SYBER Green Supermix assay system (Bio-Rad Laboratories). All PCR amplifications were carried out in triplicate on an iQ5 Multicolor real-time PCR detection system (Bio-Rad). Primers were designed and synthesized by Integrated DNA Technologies (Table 1). Relative gene expression was calculated by using the 2^−ΔΔCt method. Livak and Schmittgen, “Analysis of Relative Gene Expression Data Using Real-Time Quantitative PCR and the 2(−Delta Delta C(T)) Method,” Methods 25:402-8 (2001), which is hereby incoporated by reference in its entirety. The normalized Ct value of each sample was calculated using GAPDH as an endogenous control gene.
(§2) PHK were plated on glass coverslips at 2-3×10^5 cells/well in a 6-well plate or at 2-3×10^4 cells/filter in Transwell insert (Costar; PET membrane, 0.4 μm pore size, 6.5 mm insert) in Keratinocyte-SFM without antibiotics. The next day after plating, cells were transfected with claudin-1 specific or control (scrambled) siRNAs (Santa Cruz) using Lipofectamine™ 2000 transfection Reagent (Invitrogen). TEER and permeability experiments were conducted 48 hours after PHK were switched to differentiation media.
siRNA approach was used to selectively downregulate claudin-1 in primary human keratinocytes (PHK). […] There was no effect on mRNA expression of occludin, ZO-1, nectin-1, E-cadherin or filaggrin (n=5/group). Relative gene expressions were calculated by using the 2^−ΔΔCt method, in which Ct indicates cycle threshold, the fractional cycle number where the fluorescent signal reaches detection threshold. The normalized Ct value of each sample was calculated using GAPDH as endogenous control gene. The specific sequence information for the claudin-1 siRNA (h) is detailed below. (This siRNA is a pool of 3 separate strands.)

For data set [1], the system named is occludin, ZO-1, nectin-1, E-cadherin or filaggrin. Kind of data set: qPCR of other barrier proteins after claudin-1 siRNA in PHK. It is filed as cell-based, human. The following applies: siRNA 100 nM, n=5/group. On the procedure:
as §1, §2

Data set [2] deals with primary human keratinocytes (PHK). Kind of data set: Trans Epithelial Electric Resistance (TEER) in PHK monolayers. It is filed as cell-based. Here is the method: PHK were plated at a subconfluent density of 2.5−3×10^4 cells/filter in Transwell insert and cultured in Keratinocyte-SFM media until confluent. TEER was measured using an EVOMX voltohmmeter (World Precision Instruments, Sarasota, Fla.). The resistance of cell-free filters was subtracted from each experimental value.
as §2
TEER was measured in PHK as described above. PHK were stimulated with S. aureus-derived peptidoglycan (PGN, 0.2-20 μg/ml, n=3-7) (FIG. 19A), Malp-2 (10-1000 ng/ml, n=3) (FIG. 19B), and Pam3CSK4 a TLR1/2 ligand (0.01-20 μg/ml, n=3-6) (FIG. 19C). Data are presented by analyzing the area under the TEER curve and normalized to the mean values for the control group (media alone)*p<0.05; **p<0.01.

The next data set deals with HSV-1 strain F. Kind of data set: HSV-1 fluorescent-focus assay in PHK. It counts as cell-based, Herpes Simplex Virus (HSV)-1. The following applies: siRNA 100 nM, MOI 0.1, 24 h, n=6. On the procedure:
Infection studies were performed using the highly virulent HSV-1 strain F (provided by Dr. D.C. Johnson). Twenty-four to 48 h post-transfection with 100 nM claudin-1 or control siRNA, the cells were differentiated in DMEM with 10% heat-inactivated FBS for 24 h. Cells were washed twice with HBSS and infected with HSV-1 strain F at a multiplicity of infection (MOI) of 0.1 in DMEM containing 1% heat-inactivated FBS at 37° C., with rocking every 15 min. After 2 h, the viral inoculum was removed, and the cells were washed 2× with HBSS and incubated in DMEM containing 5% HI-FBS and 0.4% human-γ-globulin (Sigma; final concentration 0.5 mg/ml) for 24 hr to neutralize any extracellular virus.
HSV-infected PHK were washed 2× with PBS and fixed in 4% formaldehyde/PBS for 20 min at room temperature. A polyclonal rabbit anti-HSV-1 (Dako) antibody diluted 1:500 in PBS/1% BSA was placed on the PHK for 1 h at 37° C. followed by Alexa Fluor 488 donkey-anti-rabbit IgG H+L (1:1000, Molecular Probes) and 4′,6-diamidino-2-phenyl-indole, dihydrochloride (DAPI) (1:10,000, Molecular Probes). Coverslips were mounted onto slides with SlowFade (Molecular Probes). […] Images were stored in Portable Network Graphics (PNG) format and analyzed computationally to objectively quantify differences in focal forming units (FFU). […] Cell density was calculated by counting the number of DAPI labeled nuclei, assigned to the blue channel. Images were analyzed using MATLAB to enumerate FFU, and total cell number. […]
The MOI was chosen based on findings from viral titration (0.01 to 10 MOI) studies on differentiated and undifferentiated PHK, respectively, used as negative and positive controls. […] For each sample, six random fields were captured at identical acquisition settings and analyzed computationally to objectively quantify differences in focal forming units (FFU). […] An average of 4.8±0.7 FFU/field were counted in CLDN1 knockdown PHK, while only 2.5±0.5 FFU/field were detected in the control cells (P=0.05; n=6; FIG. 15C). Adapted Fluorospot software was used to semi-quantify differences in dimensions of each FFU. […]

Several values for one entry are separate records, joined by “and”; a condition that tells them apart may be missing. Equal values may be shown once. A value given as a limit tells only on which side of the number the result lay.

B1: CLDN1 siRNA: claudin-1 specific siRNA (Santa Cruz), a pool of 3 separate strands, SEQ ID NO: 10-15 (nucleic acid)
chain 1: UACAUAGGCAUAGUUCAUGNN
chain 2: CAUGAACUAUGCCUAUGUANN
chain 3: AACGUAUGCAGUUAAUUCCNN
chain 4: GGAAUUAACUGCAUACGUUNN
chain 5: UGAAGAUCUAUGUAUGUGGNN
chain 6: CCACAUACAUAGAUCUUCANN
modifications: chemistry not given here
On to B1, for which, in the data set on claudin-1 transcripts, the “reduction in claudin-1 transcripts compared to control transfected cells” value came to 50%. Moreover, in the data set with claudin-1 transcripts (n=5/group), the “claudin-1 transcripts (MEAN±SEM)” value was 5.42±0.8 RVU and the “claudin-1 transcripts relative to control transfected cells” value is on record as 0.5 fold. In the data set on claudin-1 transcripts (n=5/group, listed as Cldn1 siRNA), the “claudin-1 transcripts relative to control transfected cells” value is listed as 0.5%±0.06 fold. Also, in data set [1] (listed as Cldn1 siRNA), the “mRNA expression of occludin, ZO-1, nectin-1, E-cadherin or filaggrin” value was “no effect”. For the same molecule, in data set [1] (listed as claudin-1 siRNA), the “mRNA expression of occludin, ZO-1, nectin-1, E-cadherin or filaggrin” value is recorded as “no changes”. Besides, the “reduction in TJ function (electrical resistance and permeability assays)” value in data set [2] (claudin-1 siRNA, PHK) is reported as approximately 50%. Also, the TEER in data set [2] (siRNA 100 nM, 48 hours after switch to differentiation media, n=4) came out at 80.6±6.4 ohms×cm^2. In addition, the “drop in TEER” value in data set [2] (siRNA 100 nM, vs scrambled siRNA) is on record as more than 50%. Further, in the data set on HSV-1 strain F, the FFU area is recorded as 15649±4367 pixels; the “HSV-1 focal forming units” value worked out at 4.8±0.7 FFU/field; the “diameter of the major axis of FFU” value was 207±22 μm and 207±21 μm.

The values are drawn from patent US20130045267A1, “METHODS OF USING AGENTS THAT MODULATE CLAUDIN EXPRESSION” (priority 2010, published 2013).
